Measured values published in PMC4113144, “IRF-1 regulates alternative mRNA splicing of carcinoembryonic antigen-related cell adhesion molecule 1 (CEACAM1) in breast epithelial cells generating an immunoreceptor tyrosine-based inhibition motif”.

Target: T1, IRF-1 (UniProt P10914 1-325)
T1 sequence: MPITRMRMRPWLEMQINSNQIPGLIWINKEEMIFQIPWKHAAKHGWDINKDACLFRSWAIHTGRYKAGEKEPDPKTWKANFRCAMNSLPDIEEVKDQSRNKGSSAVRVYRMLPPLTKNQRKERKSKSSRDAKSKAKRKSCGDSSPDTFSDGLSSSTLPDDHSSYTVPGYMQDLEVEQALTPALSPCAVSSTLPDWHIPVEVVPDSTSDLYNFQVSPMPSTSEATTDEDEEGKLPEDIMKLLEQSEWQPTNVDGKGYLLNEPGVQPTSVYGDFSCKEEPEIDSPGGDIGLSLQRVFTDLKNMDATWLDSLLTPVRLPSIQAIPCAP
Assay: EMSA; 17 pmol IRF-1 : 0.3 pmol DNA lowest ratio; mostly C1 plus C2 complexes; LightShift 1X binding buffer, 5% glycerol, 10 mM MgCl2, 200 ng poly(dI-dC), 0.3 pmol labeled DNA in 10 ul, room temperature 30 min; 6% DNA retardation gel; pH and salt not given
Settings: protein: commercial; tags: His; label: IRDye 700

B1: CEACAM1 ISRE WT 60-mer (dsDNA)
DNA 1: TGGGAAACCAAAATGTAGACAGAAAGGAAAGAGAAAGTAAGGACAAAGGTAGGAATGAGA
DNA 2: TCTCATTCCTACCTTTGTCCTTACTTTCTCTTTCCTTTCTGTCTACATTTTGGTTTCCCA
Question: Does B1 bind?
Answer: Result: binds
